Earlier results in article PMC3436762.

Target: TRAIL (Homo sapiens) (UniProt P50591)
Conditions: cited from earlier work

UniProt P50591, sequence (P50591 whole entry): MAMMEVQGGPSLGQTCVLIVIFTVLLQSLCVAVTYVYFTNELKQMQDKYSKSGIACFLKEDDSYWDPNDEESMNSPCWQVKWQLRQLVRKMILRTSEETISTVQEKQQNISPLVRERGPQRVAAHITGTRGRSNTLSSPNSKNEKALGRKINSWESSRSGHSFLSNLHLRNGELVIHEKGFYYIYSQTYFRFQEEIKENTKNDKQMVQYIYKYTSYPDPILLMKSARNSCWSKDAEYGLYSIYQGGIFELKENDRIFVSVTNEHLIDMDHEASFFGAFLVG

For osteoprotegerin (from UniProt O00300), which Kd is on record?
Its Kd is 400 nM.
